The values below are quoted from earlier work in publication PMC8693730.

The pKd is the Kd on a negative log10 scale, so that one unit is a factor of ten.

Series [1] has as its target RAP74 (Homo sapiens) (UniProt P35269).
For series [2] the target is unchanged. This is another data set of the same source.

pKd: −log10 of the molar value. Like-named read-outs stand apart in the source and are kept apart here.

UniProt P35269, sequence (P35269 2-517): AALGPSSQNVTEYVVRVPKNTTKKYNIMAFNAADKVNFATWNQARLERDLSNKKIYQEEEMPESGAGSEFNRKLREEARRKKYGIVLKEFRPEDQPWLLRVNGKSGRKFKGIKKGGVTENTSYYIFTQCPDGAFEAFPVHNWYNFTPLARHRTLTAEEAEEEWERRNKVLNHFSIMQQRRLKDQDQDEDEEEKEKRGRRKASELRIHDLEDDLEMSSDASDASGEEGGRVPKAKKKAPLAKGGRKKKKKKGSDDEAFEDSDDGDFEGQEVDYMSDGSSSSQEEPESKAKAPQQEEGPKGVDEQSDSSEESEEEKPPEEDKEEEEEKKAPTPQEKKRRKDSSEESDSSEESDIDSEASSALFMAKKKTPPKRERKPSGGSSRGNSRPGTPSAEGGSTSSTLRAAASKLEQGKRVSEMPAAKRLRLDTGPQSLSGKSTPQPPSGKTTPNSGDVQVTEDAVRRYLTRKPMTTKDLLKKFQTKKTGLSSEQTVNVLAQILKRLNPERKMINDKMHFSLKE

As to “androgen receptor NTD (from UniProt P10275)”, the pKd with RAP74 (Homo sapiens) [1] is 2.76; with RAP74 (Homo sapiens) [2], 3.15.
